The target in this series is T1, GST-RBM45 (6xHis-GST) (human, UniProt Q8IUH3 1-476).
T1 sequence: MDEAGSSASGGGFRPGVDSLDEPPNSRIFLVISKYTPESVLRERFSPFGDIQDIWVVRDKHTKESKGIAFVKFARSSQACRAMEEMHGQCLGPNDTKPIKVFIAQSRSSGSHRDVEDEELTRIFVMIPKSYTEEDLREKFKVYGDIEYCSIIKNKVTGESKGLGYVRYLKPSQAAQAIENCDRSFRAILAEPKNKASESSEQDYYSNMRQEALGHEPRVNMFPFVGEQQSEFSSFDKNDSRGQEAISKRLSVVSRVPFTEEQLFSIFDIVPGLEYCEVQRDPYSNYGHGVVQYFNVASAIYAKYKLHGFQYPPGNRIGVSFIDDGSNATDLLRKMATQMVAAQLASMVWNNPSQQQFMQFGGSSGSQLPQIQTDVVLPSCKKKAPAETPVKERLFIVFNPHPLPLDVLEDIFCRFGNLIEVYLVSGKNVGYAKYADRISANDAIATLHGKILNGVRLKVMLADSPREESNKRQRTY
In words: fluorescence polarization. In general terms: Fluorescence polarisation rises when a labelled molecule tumbles more slowly, as on binding a larger partner.

As a reminder, the Kd is the equilibrium constant for the complex coming apart. Molecule UUCUUCUGUGGACUGUG (ssRNA, m6A at A12) [FAM m6A ssRNA] gave a Kd of 462 ± 73 nM.

The record behind these values is PMC9472474.
